Test results from PMC7305236.
No end group written: not given here.

What was measured:
[1] = target: atypical chemokine receptor ACKR3 (formerly CXCR7) (human) (UniProt P25106)
[2] = target: atypical chemokine receptor ACKR3 (formerly CXCR7) (human) (UniProt P25106); remark: listed apart in the source
[3] = target: delta opioid receptor (DOR) (human) (UniProt P41143)
[4] = target: mu opioid receptor (MOR) (human) (UniProt P35372)
[5] = target: kappa opioid receptor (KOR) (human) (UniProt P41145)

Sequence of atypical chemokine receptor ACKR3 (formerly CXCR7) (human) (P25106 whole entry): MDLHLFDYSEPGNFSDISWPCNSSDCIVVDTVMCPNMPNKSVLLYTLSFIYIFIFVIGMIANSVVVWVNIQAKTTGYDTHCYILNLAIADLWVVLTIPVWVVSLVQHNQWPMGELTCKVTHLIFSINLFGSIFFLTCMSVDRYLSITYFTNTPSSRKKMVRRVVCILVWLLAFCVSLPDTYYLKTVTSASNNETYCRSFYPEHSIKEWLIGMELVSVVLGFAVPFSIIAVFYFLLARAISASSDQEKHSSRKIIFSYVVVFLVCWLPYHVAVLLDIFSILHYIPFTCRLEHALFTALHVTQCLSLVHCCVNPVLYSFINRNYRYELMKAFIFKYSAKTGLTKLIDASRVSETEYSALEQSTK

Row | Binder | Supplementary Table 5: EC50 of β-arrestin-1 recruitment to ACKR3 [1] | Supplementary Table 4: EC50 of β-arrestin-1 recruitment to ACKR3, U87 cells [2] | Supplementary Table 4: EC50 of β-arrestin-1 recruitment to DOR, U87 cells [3] | Supplementary Table 4: EC50 of β-arrestin-1 recruitment to MOR, U87 cells [4] | Supplementary Table 4: EC50 of β-arrestin-1 recruitment to KOR, U87 cells [5]
1 | FGGFMRRKR-NH2 | 1.12 nM | – | – | – | –
2 | FGGWMRRKR-NH2 | 7.34 nM | – | – | – | –
3 | FGGWMRRV-NH2 [second-generation peptide FGGWMRRV] | 10.5 nM | – | – | – | –
4 | YGGAMRRV-NH2 [adrenorphin-derived peptide YGGAMRRV] | – | 10000 nM | – | – | –
5 | YSGFMRRV-NH2 [adrenorphin-derived peptide YSGFMRRV] | – | 10000 nM | – | – | –
6 | YGGWMRRV-NH2 [adrenorphin-derived peptide YGGWMRRV] | – | 70.3 nM | 1020 nM | 522 nM | > 10000 nM
7 | FGGFMRRV-NH2 [adrenorphin-derived peptide FGGFMRRV] | – | 9.33 nM | – | – | –
8 | YGGFMRRVR-NH2 | – | 12.6 nM | 193 nM | 58.7 nM | 21.9 nM
9 | YGGFMRRI-NH2 [adrenorphin-derived peptide YGGFMRRI] | – | 115 nM | 320 nM | 188 nM | 76.9 nM
10 | YGGFMKRV-NH2 [adrenorphin-derived peptide YGGFMKRV] | – | 5000 nM | 360 nM | 63.8 nM | 416 nM
11 | YGAFMRRV-NH2 [adrenorphin-derived peptide YGAFMRRV] | – | 263 nM | 1580 nM | > 10000 nM | 315 nM
12 | GGFMRRV-NH2 [adrenorphin-derived peptide - GGFMRRV] | – | > 10000 nM | – | – | –
13 | FGGFMRRF-NH2 [second-generation peptide FGGFMRRF] | 11 nM | – | – | – | –
14 | YGGFQRRV-NH2 [adrenorphin-derived peptide YGGFQRRV] | – | 5000 nM | > 10000 nM | 5000 nM | 283 nM
15 | YGGYMRRV-NH2 [adrenorphin-derived peptide YGGYMRRV] | – | 5000 nM | – | – | –
16 | YAGFMRRV-NH2 [adrenorphin-derived peptide YAGFMRRV] | – | 611 nM | 2320 nM | 1090 nM | –
17 | YGGFMRRK-NH2 [adrenorphin-derived peptide YGGFMRRK] | – | 37 nM | 527 nM | 252 nM | 19.2 nM
18 | YRGFMRRV-NH2 [adrenorphin-derived peptide YRGFMRRV] | – | 5000 nM | – | – | –
19 | YGGFMRRL-NH2 [adrenorphin-derived peptide YGGFMRRL] | – | 153 nM | 254 nM | 294 nM | 71.2 nM
20 | FGGWMRRVR-NH2 | 6.16 nM | – | – | – | –

Row | Binder | Supplementary Table 5: EC50 of β-arrestin-1 recruitment to ACKR3 [1] | Supplementary Table 4: EC50 of β-arrestin-1 recruitment to ACKR3, U87 cells [2] | Supplementary Table 4: EC50 of β-arrestin-1 recruitment to DOR, U87 cells [3] | Supplementary Table 4: EC50 of β-arrestin-1 recruitment to MOR, U87 cells [4] | Supplementary Table 4: EC50 of β-arrestin-1 recruitment to KOR, U87 cells [5]
21 | AYGGFMRRV-NH2 | – | 330 nM | 637 nM | 308 nM | 205 nM
22 | YGGFKRRV-NH2 [adrenorphin-derived peptide YGGFKRRV] | – | 10000 nM | – | – | –
23 | YGGLMRRV-NH2 [adrenorphin-derived peptide YGGLMRRV] | – | 10000 nM | – | – | –
24 | YGGFMRRA-NH2 [adrenorphin-derived peptide YGGFMRRA] | – | 201 nM | 260 nM | 265 nM | 132 nM
25 | YGGFMRRF-NH2 [adrenorphin-derived peptide YGGFMRRF] | – | 73.5 nM | 212 nM | 198 nM | 80.9 nM
26 | YGGFNRRV-NH2 [adrenorphin-derived peptide YGGFNRRV] | – | 10000 nM | – | – | 508 nM
27 | YGGFMRRQ-NH2 [adrenorphin-derived peptide YGGFMRRQ] | – | 110 nM | 259 nM | 183 nM | 63.1 nM
28 | YGGFLRRV-NH2 [adrenorphin-derived peptide YGGFLRRV] | – | 684 nM | 513 nM | 880 nM | 31.9 nM
29 | FGGFMRRVR-NH2 | 3.53 nM | – | – | – | –
30 | LGGFMRRV-NH2 [adrenorphin-derived peptide LGGFMRRV] | – | 261 nM | – | – | –
31 | AGGFMRRV-NH2 [adrenorphin-derived peptide AGGFMRRV] | – | > 10000 nM | – | – | –
32 | YGGFMRKV-NH2 [adrenorphin-derived peptide YGGFMRKV] | – | 10000 nM | 378 nM | 786 nM | 230 nM
33 | FGGWMRRK-NH2 [second-generation peptide FGGWMRRK] | 4.39 nM | – | – | – | –
34 | YGGFMRRVC-NH2 (also: dimer of two chains) [adrenorphin-derived peptide (…)2] | – | 52.9 nM | 253 nM | 271 nM | 79.4 nM
35 | YGGFFRRV-NH2 [adrenorphin-derived peptide YGGFFRRV] | – | 1540 nM | 1310 nM | 363 nM | 194 nM
36 | YGSFMRRV-NH2 [adrenorphin-derived peptide YGSFMRRV] | – | 668 nM | > 10000 nM | > 10000 nM | > 10000 nM
37 | YGGFARRV-NH2 [adrenorphin-derived peptide YGGFARRV] | – | 5000 nM | > 10000 nM | > 10000 nM | 656 nM
38 | YGGFMRRVA-NH2 | – | 72.3 nM | 272 nM | 174 nM | 57.5 nM
39 | YGGFMRAV-NH2 [adrenorphin-derived peptide YGGFMRAV] | – | – | 308 nM | 682 nM | 1250 nM
40 | YGGFMARV-NH2 [adrenorphin-derived peptide YGGFMARV] | – | 5000 nM | 147 nM | 35.4 nM | 2240 nM
